Results reported in publication PMC248471 (Biological Procedures Online, 2003).
Like-named read-outs stand apart in the source and are kept apart here.

How the values were obtained:
[1] = target: T1, 72 kDa heat shock protein (HSP72), recombinant human (human, UniProt P0DMV8 1-641); experiment: SPR
[2] = target: T1, 72 kDa heat shock protein (HSP72), …; experiment: SPR; remark: listed apart in the source

T1 sequence (P0DMV8 whole entry): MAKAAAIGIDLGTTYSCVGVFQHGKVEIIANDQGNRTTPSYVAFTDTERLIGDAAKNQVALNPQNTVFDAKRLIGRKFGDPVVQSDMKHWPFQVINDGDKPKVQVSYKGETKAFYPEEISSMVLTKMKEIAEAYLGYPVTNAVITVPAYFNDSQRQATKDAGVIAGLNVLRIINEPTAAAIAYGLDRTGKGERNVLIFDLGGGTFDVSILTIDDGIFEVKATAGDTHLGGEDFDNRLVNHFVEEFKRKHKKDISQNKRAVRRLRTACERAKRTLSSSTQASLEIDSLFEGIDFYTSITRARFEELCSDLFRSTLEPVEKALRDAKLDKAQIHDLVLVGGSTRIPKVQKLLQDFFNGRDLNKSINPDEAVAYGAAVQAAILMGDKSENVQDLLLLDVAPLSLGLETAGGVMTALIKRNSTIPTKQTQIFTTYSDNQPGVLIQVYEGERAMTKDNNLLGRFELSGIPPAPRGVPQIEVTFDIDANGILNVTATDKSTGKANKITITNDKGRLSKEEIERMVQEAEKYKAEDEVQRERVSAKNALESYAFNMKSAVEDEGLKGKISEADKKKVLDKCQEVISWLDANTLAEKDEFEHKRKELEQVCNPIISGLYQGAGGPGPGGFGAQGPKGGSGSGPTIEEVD

B1: Peptide N, the extreme carboxyl terminus (15 amino acids) of the Edmonston MV N protein (peptide)
peptide: DTDTPIVYNDRNLLD
For B1, the Kd [1] was 4000 nM, the Kd [2] was 1000 nM and the kon [2] was 357 M⁻¹ s⁻¹.
